Reference: patent US20120090043A1, “TARGETS FOR RETROVIRUS ASSOCIATED DISEASES” (priority 2009, published 2012)

Tested on: HIV-1 LTR promoter transactivation by HIV-1 Tat
Assay: Transactivation assay, HIV-1 LTR luciferase reporter with HIV-1 Tat
Format: cell-based
Settings: HEK293 cells co-transfected with pHIV1LTR-Luc, HIV-1 Tat and the human ORF; relative luciferase activity 24 h post-transfection; positive if >=2 or <=0.5 and p<0.05
Source text: The plasmids pHIV1LTR-Luc or pHTLV1LTR-Luc containing a luciferase reporter gene under the control of the HIV-1 or HTLV-1 LTR promoters and plasmids expressing either HIV-1 Tat or HTLV-1 Tax and each human ORF found to interact with viral proteins were transfected into 10^4 HEK293 cells using the calcium phosphate method. Twenty-four hours post-transfection, cells were washed three times with PBS, lysed and luciferase activities determined from two independent transfection experiments in triplicate. We computed a paired t-test to assess the difference of the means between samples with and without the human interactor. For a trial to be considered positive, the relative luciferase activities has to be >=2 or <=0.5, and the p-value of the t-test<0.05.
Many HIV/HTLV-human interactions in our data set (130/212) involved the retroviral transactivator proteins HTLV-1 Tax (57/212), HTLV-2 Tax2 (49/212), HIV-1 Tat (10/212) and HIV-2 Tat (14/212). Human proteins interacting with viral transactivators likely influence Tat or Tax transactivation. Expression vectors encoding human ORFs and HIV-1 Tat or HTLV-1 Tax proteins were tested in a transactivation reporter assay against reporter plasmids harboring HIV-1 or HTLV-1 viral promoter sequences cloned upstream of the luciferase reporter gene. In the controls Tat or Tax respectively activated HIV or HTLV LTR-directed gene expression. Co-transfection of interacting human ORFs identified 71 proteins (54% of the 131 human targets in our data set) that regulated HIV (26.7% of targets), HTLV (37.4% of targets) or both (9.9% of targets) LTR promoter activation by Tat or Tax (see Tables 7 and 8; Table 13 below containing quantitative data on the regulation of transactivation). Wherever not expressly specified, constructs used herein were generally made by sub-cloning entry clones from the ORFeome V3.1 into suitable destination vectors.

| Molecule | HIV_LTR transactiv. [fold change] |
| --- | --- |
| NKAP: human host interactor protein, Gene ID 79576, expressed from transfected ORF vector (protein) MAPVSGSRSPDREASGSGGRRRSSSKSPKPSKSARSPRGRRSRSHSCSRSGDRNGLTHQLGGLSQGSRNQSYRSRSRSRSRERPSAPRGIPFASASSSVYYGSYSRPYGSDKPWPSLLDKEREESLRQKRLSERERIGELGAPEVWGLSPKNPEPDSDEHTPVEDEEPKKSTTSASTSEEEKKKKSSRSKERSKKRRKKKSSKRKHKKYSEDSDSDSDSETDSSDEDNKRRAKKAKKKEKKKKHRSKKYKKKRSKKSRKESSDSSSKESQEEFLENPWKDRTKAEEPSDLIGPEAPKTLTSQDDKPLNYGHALLPGEGAAMAEYVKAGKRIPRRGEIGLTSEEIASFECSGYVMSGSRHRRMEAVRLRKENQIYSADEKRALASFNQEERRKRENKILASFREMVYRKTKGKDDK | 2.68 |
| PIAS2: human host interactor protein, Gene ID 9063, expressed from transfected ORF vector (protein) MADFEELRNMVSSFRVSELQVLLGFAGRNKSGRKHDLLMRALHLLKSGCSPAVQIKIRELYRRRYPRTLEGLSDLSTIKSSVFSLDGGSSPVEPDLAVAGIHSLPSTSVTPHSPSSPVGSVLLQDTKPTFEMQQPSPPIPPVHPDVQLKNLPFYDVLDVLIKPTSLVQSSIQRFQEKFFIFALTPQQVREICISRDFLPGGRRDYTVQVQLRLCLAETSCPQEDNYPNSLCIKVNGKLFPLPGYAPPPKNGIEQKRPGRPLNITSLVRLSSAVPNQISISWASEIGKNYSMSVYLVRQLTSAMLLQRLKMKGIRNPDHSRALIKEKLTADPDSEIATTSLRVSLMCPLGKMRLTIPCRAVTCTHLQCFDAALYLQMNEKKPTWICPVCDKKAAYESLILDGLFMEILNDCSDVDEIKFQEDGSWCPMRPKKEAMKVSSQPCTKIESSSVLSKPCSVTVASEASKKKVDVIDLTIESSSDEEEDPPAKRKCIFMSETQSSPTKGVLMYQPSSVRVPSVTSVDPAAIPPSLTDYSVPFHHTPISSMSSDLPGLDFLSLIPVDPQYCPPMFLDSLTSPLTASSTSVTTTSSHESSTHVSSSSSRSETGVITSSGSNIPDIISLD | 0.42 |
| PDE9A: human host interactor protein, Gene ID 5152, expressed from transfected ORF vector (protein) MGSGSSSYRPKAIYLDIDGRIQKVIFSKYCNSSDIMDLFCIATGLPRNTTISLLTTDDAMVSIDPTMPANSERTPYKVRPVAIKQLSAGVEDKRTTSRGQSAERPLRDRRVVGLEQPRREGAFESGQVEPRPREPQGCYQEGQRIPPEREELIQSVLAQVAEQFSRAFKINELKAEVANHLAVLEKRVELEGLKVVEIEKCKSDIKKMREELAARSSRTNCPCKYSFLDNHKKLTPRRDVPTYPKYLLSPETIEALRKPTFDVWLWEPNEMLSCLEHMYHDLGLVRDFSINPVTLRRWLFCVHDNYRNNPFHNFRHCFCVAQMMYSMVWLCSLQEKFSQTDILILMTAAICHDLDHPGYNNTYQINARTELAVRYNDISPLENHHCAVAFQILAEPECNIFSNIPPDGFKQIRQGMITLILATDMARHAEIMDSFKEKMENFDYSNEEHMTLLKMILIKCCDISNEVRPMEVAEPWVDCLLEEYFMQSDREKSEGLPVAPFMDRDKVTKATAQIGFIKFVLIPMFETVTKLFPMVEEIMLQPLWESRDRYEELKRIDDAMKELQKKTDSLTSGATEKSRERSRDVKNSEGDCA | 0.28 |
